Experimental findings from patent US8507433B1, “Cardioprotective effects of GHRH agonists” (University of Miami, priority 2010, dated 2013) are described below.

Several values for one entry are separate records, joined by “and”; a condition that tells them apart may be missing. Equal entries are not always repeated. Marks after values point to notes of the source that are not given here.

In one assay the test system is serum IGF-I. Briefly: Rat serum IGF-I (radioimmunoassay) after 4-week treatment. The note with it: rats post-MI, blood 1-2 hours after last injection, vs. placebo. The format is in vivo. As to the method:
(§1) MI induced by coronary artery ligation was performed in female 6-month-old Fisher-344 rats as described previously (40). Animals were randomly assigned to receive placebo, GHRH-agonist (GHRH-A [JI-38], 50 μg/kg) or rat recombinant GH (rrGH, 0.5 mg/kg) starting 2 hours post-surgery. All treatment was given subcutaneously twice daily for 4 weeks. The Institutional Animal Care and Use committee of University of Miami approved all protocols and experimental procedures.
(§2) At the end of the study, blood was drawn 1-2 hours after the last rrGH or GHRH-A injection and the serum was stored at −80° C. until the measurements were done. All the samples were assayed together and each sample was assayed in duplicate. Rat serum GH was measured using a rat GH Enzyme-Linked Immunosorbent Assay (ELISA) Kit (DSL-10-72100, DSL Webster, Tex.), following the manufacturer's recommendations. This test is an enzymatically amplified “one-step” sandwich-type enzyme immunoassay, where standards, controls and unknown samples are incubated in microtitration wells precoated with the anti-rat GH antibody. The standard curve of the assay was established with samples provided by the manufacturer. Rat serum IGF-I was measured using a rat IGF-I Radioimmunoassay Kit (DSL-2900, DSL Webster, Tex.), after extraction with acid ethanol, following the manufacturer's recommendations. […]

For assay [1], the system named is female 6-month-old Fisher-344 rats, MI induced by coronary artery ligation. Briefly: Histopathology: MI size, fibrosis, capillary density, myocyte width. The format is in vivo, rat. The following applies: rats post-MI after 4-week treatment. As to the method: as §1
(§3) At the end of the study, rat hearts were harvested for further analysis. Hearts were weighted and the basal portion, free of fibrotic tissue, was flash-frozen in liquid nitrogen for total RNA isolation and protein analysis. Remaining tissue was fixed with 10% formalin for histology.
Slides were prepared with H&E and Masson's trichrome stain to assess cardiac structure and the presence and extent of fibrosis and myocardial scar, respectively. The size of MI was determined using NIH Image version 1.30v for Windows to quantify the percentage area of fibrosis. An image-processing software (Imaging Processing Toolkit 5.0, Reindeer Graphics, Asheville, N.C.) and Adobe Photoshop CS2 (San Jose, Calif.) were used to assess the slides as previously described with minor modifications (3). The percentage of fibrosis was calculated by using the following formula: % fibrosis=fibrotic area/(fibrotic area+healthy area)
H&E stained sections of hearts from midventricular level were used to measure the myocyte width. At least 35-50 cardiomyocytes were counted and averaged at the level of the nuclei in non-infarcted remote myocardium.

Assay [2] has the same test system. Briefly: Hemodynamic measurements (LV pressure-volume catheterization) post-MI. The class given is in vivo, rat. More on the design: SW (stroke work) / Ees (end-systolic elastance): unit not given here. The note with it: rats post-MI after 4-week treatment; for Heart rate: LV catheterization; for LVEDP / LVEDV: preload. As to the method:
as §1
Rats were anesthetized by intramuscular injection of a mixture of ketamine (100 mg/kg), xylazine (20 mg/kg) and acepromazine (10 mg/kg). A 2-F micromanometer tipped catheter (SPR-838, Millar Instruments, Houston, Tex.) was inserted into the right carotid artery and advanced retrograde into the left ventricle. Measurements were calibrated by injecting a hypertonic saline (15%) bolus to determine extra-ventricular conductance; relative volume units were converted to actual volume using the cuvette calibration method (2). All analyses were performed using PVAN 3.0 software (Millar Instruments, Houston, Tex.).

Another assay has as its system GHRH-R mRNA. Briefly: Real-time PCR of mRNA for GHRH-R and β-actin in rat heart tissue. The class given is in vivo. The following applies: normalised to β-actin, Pfaffl method. As to the method: (§4) Total RNA from heart tissue was extracted using Trizol (Invitrogen, Carlsbad, Calif.). The quality of RNA isolated was tested using NanoDrop1000 (Thermo Fisher Scientific Inc., Wilmington, Del.). OD 260/280 ratio was in the range of 1.8 to 2.1 for all samples.
The expression of GHRHR was measured using real-time quantitative PCR as described previously by Havt et al (6).
We evaluated the mRNA expression of rat GHRH receptor (GHRH-R) and β-actin. The probes designed to evaluate the expression of GHRH-R and β-actin are 5′-/Cy5/ACCTCCGACTTTCTCAGTTCCTGTATGCCC/BHQ—2/-3′ and 5′-/6-FAM/ATCCTGCGTCTGGACCTGGCTGGC/BHQ—1/-3′, respectively. Gene specific primer sequences were the following: GHRH-R (sense) 5′-[…]-3′ and 5′-TGGTTTCCCTGGGCCTTGG-3′ (antisense) with a product size of 110 bp, β-actin: (sense) 5′-GGGTTACGCGCTCCCTCAT-3′ and 5′-[…]-3′ (antisense) with a product size of 133 bp.
All real-time PCR reactions were performed in the iCycler iQ™ Real-Time PCR Detection System (Bio-Rad, Hercules, Calif.). Thermal cycling conditions comprised an initial denaturation step at 95° C. for 3 min followed by 45 cycles at 95° C. for 30 sec and an annealing temperature at 60° C. for GHRH-R and β-actin for 1 min. As final steps, we included two cycles: one at 95° C. and the other at 60° C., both for 1 min. […]
In general terms: Quantitative PCR measures a nucleic acid by following its amplification.

Another assay deals with serum GH. Briefly: Rat serum GH (ELISA) after 4-week treatment. The format is in vivo. The note with it: rats post-MI, blood 1-2 hours after last injection, vs. placebo. The procedure:
as §1, §2
On the technique in general: An ELISA detects its analyte on a solid surface through an enzyme-linked reagent.

For assay [3], the system named is female 6-month-old Fisher-344 rats, MI induced by coronary artery ligation. Briefly: Body weight and heart weight after MI, 4-week treatment. The format is in vivo, rat. The following applies: mean±SEM; for Heart weight (HW) / body weight (BW) after MI: rats post-MI; for Heart weight (HW): after 4-week treatment; for body weight (BW) after MI: week 4, s.c. twice daily 4 weeks, GHRH-A 50 μg/kg or rrGH 0.5 mg/kg; for body weight (BW), baseline: rats, baseline before MI and treatment. As to the method:
as §1, §3

Assay [4] concerns Bcl2 and Bax gene expression. The experiment in a line: Real-time PCR of pro-apoptotic and anti-apoptotic genes (Bax, Bcl2) in rat heart. The class given is in vivo. The note with it: rt-qPCR. As to the method:
as §4
The monitoring of pro-apoptotic and anti-apoptotic genes was also assessed by real time PCR. First-strand cDNA was synthesized from 1 μg total RNA using the High-Capacity cDNA Reverse-Transcription Kit (Applied Biosystems, Inc., Foster City, Calif., USA), and ribosomal 18S RNA served as the housekeeping gene. We used TaqMan probes labeled with 6-carboxyfluorescein (FAM) for real-time RT-PCR reactions, according to manufacturer's protocol (Applied Biosystems, Inc., Foster City, Calif., USA). Data were analyzed by the threshold cycle (Ct) relative quantification method.

Assay [5] concerns female 6-month-old Fisher-344 rats, MI induced by coronary artery ligation. Briefly: Echocardiographic measurements post-MI. The format is in vivo, rat. The note with it: echocardiography. The procedure: as §1
Echocardiographic measurements were obtained at baseline, 2 days, 1, 2 and 4 weeks. Echocardiographic assessments were performed in anesthetized rats (2% isoflurane inhalation) using a Vevo-770 echocardiogram (Visual Sonics Inc., Toronto, Ontario, Canada) equipped with a 17.5-MHz transducer. Cardiac dimensions: LV end diastolic (LVEDD), end systolic (LVESD) diameters and fractional shortening (FS) were recorded from M-mode images using averaged measurements from 3 to 5 consecutive cardiac cycles according to the American Society of Echocardiography (1). Ejection fraction (EF) was calculated from bi-dimensional long-axis parasternal views taken through the infarcted area. All images were analyzed using Vevo 770 3.0.0 software (Visual Sonics Inc., Toronto, Ontario, Canada).

Assay [6] deals with rat GHRH receptor (GHRHR) in membrane fractions from ischemic rat heart (rat) (UniProt Q02644). Briefly: radioligand binding: in vitro ligand competition assay with radioiodinated JV-1-42 on ischemic rat heart membrane fractions.
The subject of assay [7] is Ki67 positive cells and c-kit+ cardiac precursor cells in rat heart. The experiment in a line: Immunostaining for Ki67 and c-kit positive cells in heart sections. The following applies: remote zone, relative to placebo and GHRH-A. The class given is in vivo. As to the method:
as §1
Paraffin sections were deparaffinized and rehydrated by immersion in xylene and a graded series of ethanols. Antigen retrieval was performed by a heat-induced method with citrate buffer (Dako, Carpinteria, Calif.). After blocking with 10% normal donkey serum, sections were incubated with a primary antibody (table S3), at 37° C. for 1 hour, followed by application of secondary antibody. Omission of the primary antibodies on parallel sections was used as negative control. Nuclei were counterstained with DAPI (Invitrogen, Carlsbad, Calif.). The total numbers of positively-stained cells were quantified per slide to calculate the number of cells per unit volume (mm^3) on each sample. Morphometric analysis was performed by using Adobe Photoshop CS3 (San Jose, Calif.)

Sequence of UniProt Q02644 (Q02644 23-464): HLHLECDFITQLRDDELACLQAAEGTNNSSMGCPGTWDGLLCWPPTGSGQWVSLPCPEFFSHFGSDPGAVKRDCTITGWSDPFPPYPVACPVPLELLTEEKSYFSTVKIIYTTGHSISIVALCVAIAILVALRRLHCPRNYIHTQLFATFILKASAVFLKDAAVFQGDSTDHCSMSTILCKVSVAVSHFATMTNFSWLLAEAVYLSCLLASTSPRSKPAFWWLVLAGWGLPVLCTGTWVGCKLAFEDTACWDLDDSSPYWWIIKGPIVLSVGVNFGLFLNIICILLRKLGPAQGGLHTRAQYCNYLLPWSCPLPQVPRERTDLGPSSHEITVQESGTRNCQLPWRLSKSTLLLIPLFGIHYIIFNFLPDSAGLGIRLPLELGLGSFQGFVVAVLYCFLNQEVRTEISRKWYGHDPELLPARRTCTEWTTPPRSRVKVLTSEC

Turning to “[Dat^1, Gln^8, Orn^12,21, Abu^15, Nle^27, Asp^28, Agm^29]hGH-RH(1-29)NH2 [GHRH-A]”, the “serum IGF-I” value in the assay on serum IGF-I is on record as “did not increase”. Besides, the capillary density in assay [1] is on record as 0.006±0.001 /mm^2. Besides, in assay [2], the Heart rate stood at 270 ± 17 bpm, the LVEDP is listed as 8 ± 0.5 mmHg and the LVEDV came to 421 ± 26 µL. In assay [2] (afterload), the “Ea (arterial elastance)” value stood at 0.5 ± 0.004 mmHg/μl and the LVESP worked out at 83 ± 1.1 mmHg. Moreover, in assay [2] (contractility), the “Ees (end-systolic elastance)” value was 0.19 ± 0.02. Also, the “Ratio (GHRH-R gene expression level in treatment group compared to placebo group)” value in the assay on GHRH-R mRNA is 1.91. The “serum GH” value in the assay with serum GH is recorded as “did not increase”. In addition, in [3], the “Heart weight (HW)” value came to 695 ± 26 mg; the “body weight (BW) after MI” value is 225 ± 3 g; the “body weight (BW), baseline” value came to 231 ± 5 g. In assay [4], the “expression of anti-apoptotic gene (Bcl2)” value is recorded as “upregulated” and the “expression of pro-apoptotic gene (Bax)” value is “trended to be downregulated”. Also, the “ratio between Bax and Bcl2 expression” value in assay [4] (in comparison to placebo or rrGH) is “significantly reduced”. In addition, in assay [5] (4 weeks (W4) post-MI), the EF is 47±4% and 47.2 ± 4.0 ¶ %; the FS came to 28.7±3.3%; the LVEDD is 7.7 ± 0.2 mm. Further, in [5] (baseline (BSL)), the EF turned out to be 85.7 ± 1.6%, the FS is recorded as 53.1 ± 1.0%, the LVEDD came to 6.3 ± 0.2 mm and the LVESD is reported as 2.9 ± 0.1 mm.

The Kd is the constant that tells how readily two partners part at equilibrium. Regarding “GHRH antagonist JV-1-42 (radioiodinated derivative) (peptide)”, in assay [6], the Bmax (fmol/mg protein) turned out to be 51.3 and the Kd came out at 0.86 nM.

B1: rrGH: Rat recombinant GH supplied by National Hormone and Pituitary Program (NHPP) (protein, UniProt P01244 27-216, looked up)
Somatotropin: FPAMPLSSLFANAVLRAQHLHQLAADTYKEFERAYIPEGQRYSIQNAQAAFCFSETIPAPTGKEEAQQRTDMELLRFSLLLIQSWLGPVQFLSRIFTNSLMFGTSDRVYEKLKDLEEGIQALMQELEDGSPRIGQILKQTYDKFDANMRSDDALLKNYGLLSCFKKDLHKAETYLRVMKCRRFAESSCAF
On to B1, for which the “expression of Ki67 positive cells” value in [7] was “higher”. The “serum IGF-I” value in the assay on serum IGF-I was found to be 1052 ± 91 ng/mL. Moreover, the “MI size (infarct size)” value in [1] (Masson's trichrome) was 45±2%. In assay [1], the capillary density is 0.02±0.002 /mm^2 and the “percentage of ventricular fibrosis” value amounted to 27±1%. Besides, in [2], the Heart rate was determined as 247 ± 6.8 bpm, the LVEDP turned out to be 10 ± 1.8 mmHg and the LVEDV was found to be 351 ± 38 µL. This molecule displayed an LVESP in [2] (afterload) of 91 ± 2.3 mmHg. In [2] (contractility), the “Ees (end-systolic elastance)” value worked out at 0.33 ± 0.12, the PRSW is 48 ± 5.0 mmHg, the dP/dtmax amounted to 6243 ± 313 mmHg/s and the dP/dtmax_EDV amounted to 17.5 ± 4.3 mmHg/s/l. Moreover, the dP/dtmin in assay [2] (lusitropy) came to 4028 ± 334 mmHg/s. Besides, in [2] (pressure-volume derived), the “CO (cardiac output)” value worked out at 22.5 ± 3.4 mL/min, the EF came to 26.2 ± 1.7%, the “SV (stroke volume)” value amounted to 98 ± 13 µL and the “SW (stroke work)” value was found to be 6920 ± 790. Moreover, in assay [2] (ratio between arterial elastance and end-systolic elastance), the Ea/Ees stood at 4.4 ± 0.6. Also, the “TAU (G)” value in assay [2] (relaxation time constant, Glantz method) is on record as 19.9 ± 0.4 ms. Further, in the assay on GHRH-R mRNA, the “Ratio (GHRH-R gene expression level in treatment group compared to placebo group)” value is reported as 2.10 *. In the assay on serum GH, the “serum GH” value was 679 ± 196 ng/mL. Besides, in [3], the “Heart weight (HW)” value is 850 ± 38 mg; the “body weight (BW) after MI” value came out at 256 ± 3 g; the “body weight (BW), baseline” value turned out to be 217 ± 4 g. In assay [5] (4 weeks (W4) post-MI), the EF was 44±2% and 44.3 ± 2.3%; the FS worked out at 20.3±1.3%; the LVEDD is 8.6 ± 0.1 mm; the LVESD is 6.8 ± 0.2 mm. In assay [5] (baseline (BSL)), this molecule returned an EF of 89.2 ± 0.4%, an FS of 58.2 ± 0.7%, an LVEDD of 5.9 ± 0.1 mm and an LVESD of 2.3 ± 0.1 mm.
